{"source": "paper PMC7016869", "key": {"[1]": {"molecular_target": "Exchange protein directly activated by cAMP 1 (EPAC1), recombinant full-length wild-type EPAC1B (human)", "experiment": "MST; EPAC1-cAMP and Rap1; no further conditions told"}, "[2]": {"molecular_target": "Exchange protein directly activated by cAMP 1 (EPAC1), recombinant full-length wild-type EPAC1B (human)", "experiment": "SAXS; EPAC1 with 1 mM cAMP, no Rap1b, 2.7 mg/mL, 10 mM Tris pH 9, 1 mM EDTA, 10 mM DTT, 500 mM NaCl; monomer to dimer"}}, "note": "Values joined by “and” are separate entries in the source; they are usually repeats but may differ in a detail not shown here. Equal values may be shown once."}
{"substance": "C-terminally truncated Rap1b (1-167) (from UniProt P61224 1-167) (domain or fragment)", "values": [{"measurement": "Kd", "setting": "[1]", "result": "0.02 to 0.06", "unit": "µM"}]}
{"substance": "Exchange protein directly activated by cAMP 1 (EPAC1), recombinant full-length wild-type EPAC1B (natural protein)", "values": [{"measurement": "percent monomer in solution (EOM/polydispersity analysis)", "setting": "[2]", "result": "5 to 15", "unit": "%"}, {"measurement": "stoichiometry N", "setting": "[2]", "result": "1.8 and 2.4 and 2.2"}]}
